Experimental data taken from PMC12246617, “Cryo-EM structures reveal the PP2A–B55α and Eya3 interaction that can be disrupted by a peptide inhibitor” (The Journal of Biological Chemistry, 2025).

Assays:
B55α (His-B55) = test: Microscale thermophoresis (MST) binding of Eya3 to labeled His-B55; design: species or system human; conditions: fluorescently labeled His-B55, vs Eya3 WT
Excerpt: We expressed and purified Eya3 protein from Escherichia coli and the His-B55α subunit from insect cells (Fig. S1). In the remainder of the article, we will use B55 to represent B55α for simplicity and PP2A–B55 to represent the holoenzyme containing the A, B55, and C subunits. We labeled His-B55 with the RED–Tris–NTA dye and carried out microscale thermophoresis (MST) experiments with increasing concentrations of Eya3.
The modeled Eya3 peptide (residues 65–86) interacts mostly with residues on blades 3 and 4 of the β-propeller on the B55 surface (including residues on the β2D and β3A loop, β3B and β3C loop, and β3D and β4A loop) and with residues on the α1 and α2 helix positioned above blade 5, as well as the α2 and β6A loop (Fig. 1F). In particular, residue H79^Eya3 forms pi–pi or pi–cation stacking with H179^B55 and a hydrogen bond with D197^B55 (Fig. 2A). […] Furthermore, Y77^Eya3 forms a hydrogen bond with the main chain carbonyl of L225^B55, and K75^Eya3 forms another hydrogen bond with Y337^B55 (Fig. 2, B and C). […] We expressed and purified Eya3 K75A, Y77A, and H79A mutant proteins from E. coli and carried out MST experiments with fluorescently labeled His-B55. […] While we were working on the structure of PP2A–B55 + Eya3, Padi et al. ([84]) published the cryo-EM structure of PP2A–B55 in complex with an Eya3 peptide (residues 62–108) on bioRxiv.
FLAG-hB55, FLAG-hEya3, GFP, and GFP-B55i were cloned into the pCAG vector; (GST)-mEya3 was cloned into pGEX-6p1; His-hB56γ1 was cloned into pGEX-4T1; and His-hB55 was cloned in pFASTbac, all using the NEBuilder HiFi DNA Assembly Cloning Kit (New England Biolabs). h and m represent human and mouse proteins, respectively.
GST-mEya3 and mutants were expressed in BL21 cells. Cells were lysed in lysis buffer containing 50 mM Tris (pH 7.5), 250 mM NaCl, 5% glycerol, 1 mM DTT, and protease inhibitor cocktail (PIC; Thermo Scientific). Lysis was done in ice with sonication using 4 × 45 s pulses with 2-min off periods. NaCl was brought up to 0.5 M using 5 M NaCl, and the lysate was centrifuged for 40 min at 18,000g. Supernatant was gravity-flown over glutathione resin twice. Resin was washed with 100 ml of lysis buffer. GST was cleaved with PreScission protease and eluted into lysis buffer. Eluates were pooled and concentrated with Amicon Ultra Centrifugal filters. Concentrated protein was separated on a pre-equilibrated S200 column for size-exclusion chromatography. Peaks were combined, concentrated again, aliquoted, and stored at −80 °C.
His-B55 was expressed in Hi5 cells. […]
His-B55 or His-B56γ1 labeled with […] (NanoTemper) was added to serial dilutions of mEya3 in PBS with 0.05% Tween-20. The samples were then read with a Monolith NT.115^Pico (NanoTemper) according to the manufacturer’s instructions.

[1] = test system: apparent S/T phosphatase activity of Eya3; conditions: Eya3 mutant; cited from earlier work
Excerpt: The modeled Eya3 peptide (residues 65–86) interacts mostly with residues on blades 3 and 4 of the β-propeller on the B55 surface (including residues on the β2D and β3A loop, β3B and β3C loop, and β3D and β4A loop) and with residues on the α1 and α2 helix positioned above blade 5, as well as the α2 and β6A loop (Fig. 1F). In particular, residue H79^Eya3 forms pi–pi or pi–cation stacking with H179^B55 and a hydrogen bond with D197^B55 (Fig. 2A). […] Furthermore, Y77^Eya3 forms a hydrogen bon ...

PP2A–B55 [2] = conditions: 6,8-difluoro-4-methylumbelliferyl phosphate substrate; cited from earlier work
Excerpt: It is not surprising that ARPP19 and FAM122A inhibit the PP2A–B55 phosphatase activity since these two proteins bind on the surface of both B55 and C subunits, blocking access to the active site on C subunit.

PP2A–B55 [3] = test: Fluorescent phosphatase assay with OMFP substrate; assay type: biochemical, human; conditions: three independent biological replicates
Experimental: We noted that the buffer condition we used in our assay (50 mM Tris [pH 7.5], 50 mM NaCl, 5 mM MgCl2, and 0.1 mM EDTA) is substantially different from that used by Padi et al. (30 mM Hepes [pH 7.0], 150 mM NaCl, 1 mM MnCl2, 1 mM DTT, 0.01% Triton X-100, and 0.1 mg/ml bovine serum albumin) ([46], [84]).
Figure 5 Eya3 NTD and B55i inhibit the phosphatase activity of PP2A–B55.A, the phosphatase activity of PP2A–B55 in the absence and presence of Eya3 NTD in a fluorescent phosphatase assay using OMFP as a substrate under our previous buffer conditions ([46]). […] RFU, relative fluorescence units; NTD, N-terminal domain; OMFP, 3-O-methylfluorescein phosphate. […]
FLAG-PP2A–B55 was expressed and purified from cells transfected with pCAG-FLAG-B55, using the same method as FLAG-hEya3. […] Proteins were analyzed by SDS-PAGE, and fractions containing the PP2A–B55α holoenzyme were pooled, concentrated, aliquoted, and stored at −80 °C.
PP2A–B55 holoenzyme (25 nM) with or without 1 μM Eya3 NTD in 30 mM Hepes (pH 7.0), 150 mM NaCl, 1 mM MnCl2, 1 mM DTT, 0.01% Triton X-100, 0.1 mg/ml bovine serum albumin was incubated at room temperature for 10 min. […] Fluorescent OMFP, corresponding to phosphatase activity, was read using a BioTek Synergy H1 plate reader (excitation at 485 nm and emission at 515 nm).

B1: K75A: Eya3 K75A mutant protein from E. coli (protein, UniProt Q99504 1-573, looked up, variant K75A)
Protein phosphatase EYA3: MEEEQDLPEQPVKKAKMQESGEQTISQVSNPDVSDQKPETSSLASNLPMSEEIMTCTDYIPRSSNDYTSQMYSAAPYAHILSVPVSETAYPGQTQYQTLQQTQPYAVYPQATQTYGLPPFGALWPGMKPESGLIQTPSPSQHSVLTCTTGLTTSQPSPAHYSYPIQASSTNASLISTSSTIANIPAAAVASISNQDYPTYTILGQNQYQACYPSSSFGVTGQTNSDAESTTLAATTYQSEKPSVMAPAPAAQRLSSGDPSTSPSLSQTTPSKDTDDQSRKNMTSKNRGKRKADATSSQDSELERVFLWDLDETIIIFHSLLTGSYAQKYGKDPTVVIGSGLTMEEMIFEVADTHLFFNDLEECDQVHVEDVASDDNGQDLSNYSFSTDGFSGSGGSGSHGSSVGVQGGVDWMRKLAFRYRKVREIYDKHKSNVGGLLSPQRKEALQRLRAEIEVLTDSWLGTALKSLLLIQSRKNCVNVLITTTQLVPALAKVLLYGLGEIFPIENIYSATKIGKESCFERIVSRFGKKVTYVVIGDGRDEEIAAKQHNMPFWRITNHGDLVSLHQALELDFL
binding between Eya3 and B55 (mutants) (B55α (His-B55)): significantly reduce the binding between Eya3 and B55

B2: Y77A: Eya3 Y77A mutant protein from E. coli (protein, UniProt Q99504 1-573, looked up, variant Y77A)
Protein phosphatase EYA3: MEEEQDLPEQPVKKAKMQESGEQTISQVSNPDVSDQKPETSSLASNLPMSEEIMTCTDYIPRSSNDYTSQMYSAKPAAHILSVPVSETAYPGQTQYQTLQQTQPYAVYPQATQTYGLPPFGALWPGMKPESGLIQTPSPSQHSVLTCTTGLTTSQPSPAHYSYPIQASSTNASLISTSSTIANIPAAAVASISNQDYPTYTILGQNQYQACYPSSSFGVTGQTNSDAESTTLAATTYQSEKPSVMAPAPAAQRLSSGDPSTSPSLSQTTPSKDTDDQSRKNMTSKNRGKRKADATSSQDSELERVFLWDLDETIIIFHSLLTGSYAQKYGKDPTVVIGSGLTMEEMIFEVADTHLFFNDLEECDQVHVEDVASDDNGQDLSNYSFSTDGFSGSGGSGSHGSSVGVQGGVDWMRKLAFRYRKVREIYDKHKSNVGGLLSPQRKEALQRLRAEIEVLTDSWLGTALKSLLLIQSRKNCVNVLITTTQLVPALAKVLLYGLGEIFPIENIYSATKIGKESCFERIVSRFGKKVTYVVIGDGRDEEIAAKQHNMPFWRITNHGDLVSLHQALELDFL
apparent S/T phosphatase activity of Eya3 [1]: abolish the apparent S/T phosphatase activity of Eya3
binding between Eya3 and B55 (mutants) (B55α (His-B55)): significantly reduce the binding between Eya3 and B55

B3: FAM122A: a protein inhibitor that binds to both the B and C subunits (protein, UniProt Q96E09 1-287, looked up)
PPP2R1A-PPP2R2A-interacting …: MAQEKMELDLELPPGTGGSPAEGGGSGGGGGLRRSNSAPLIHGLSDTSPVFQAEAPSARRNSTTFPSRHGLLLPASPVRMHSSRLHQIKQEEGMDLINRETVHEREVQTAMQISHSWEESFSLSDNDVEKSASPKRIDFIPVSPAPSPTRGIGKQCFSPSLQSFVSSNGLPPSPIPSPTTRFTTRRSQSPINCIRPSVLGPLKRKCEMETEYQPKRFFQGITNMLSSDVAQLSDPGVCVSSDTLDGNSSSAGSSCNSPAKVSTTTDSPVSPAQAASPFIPLDELSSK
phosphatase activity of PP2A–B55 in vitro (PP2A–B55 [2]): inhibit the phosphatase activity of PP2A–B55 in vitro

B4: Eya3 NTD: Eya3 N-terminal domain protein (NTD, residues 1–250) (protein, UniProt Q99504 1-250, looked up, fragment)
chain: MEEEQDLPEQPVKKAKMQESGEQTISQVSNPDVSDQKPETSSLASNLPMSEEIMTCTDYIPRSSNDYTSQMYSAKPYAHILSVPVSETAYPGQTQYQTLQQTQPYAVYPQATQTYGLPPFGALWPGMKPESGLIQTPSPSQHSVLTCTTGLTTSQPSPAHYSYPIQASSTNASLISTSSTIANIPAAAVASISNQDYPTYTILGQNQYQACYPSSSFGVTGQTNSDAESTTLAATTYQSEKPSVMAPAPA
phosphatase activity of PP2A–B55 (Padi et al. buffer) (PP2A–B55 [3]; 25 nM PP2A–B55, 1 μM Eya3 NTD, 30 mM Hepes (pH 7.0), 150 mM NaCl, 1 mM MnCl2, 1 mM DTT, 0.01% Triton X-100, 0.1 mg/ml BSA, room temperature 10 min, then 37 °C 30 min, ex 485/em 515 nm): inhibits the phosphatase activity of PP2A–B55
phosphatase activity of PP2A–B55 (previous buffer) (PP2A–B55 [3]; buffer 50 mM Tris [pH 7.5], 50 mM NaCl, 5 mM MgCl2, 0.1 mM EDTA, with vs without Eya3 NTD): increases the phosphatase activity of PP2A–B55

B5: ARPP19: a protein inhibitor that binds to both the B and C subunits (protein, UniProt P56211 2-112, looked up)
cAMP-regulated phosphoprotein …: SAEVPEAASAEEQKEMEDKVTSPEKAEEAKLKARYPHLGQKPGGSDFLRKRLQKGQKYFDSGDYNMAKAKMKNKQLPTAAPDKTEVTGDHIPTPQDLPQRKPSLVASKLAG
phosphatase activity of PP2A–B55 in vitro (PP2A–B55 [2]): inhibit the phosphatase activity of PP2A–B55 in vitro
